Assay results published in patent US12618835B2, “Multiplex microelectrode array for detection of proteases as biomarkers” (Kansas State University Research Foundation, priority 2021, dated 2026).
Where no end group is shown, it is not given here. [ ]: non-standard residue; d: D form. The star is where a group is joined. aminomethylferrocene = [Fe+2].c1cc[c-](CN*)c1.c1cc[cH-]c1; Ava = NCCCCC(=O)O

Biological target: T1, recombinant human cathepsin B (rhCB) (Homo sapiens, UniProt P07858)
T1 construct: purchased R&D Systems Inc. (Minneapolis, MN)
Assay: Electrochemical (ACV) proteolysis of peptide-Fc on Au MEA by activated rhCB in different buffers, Example 3
Assay type: biochemical
Method: Gold MEA Functionalization. The diced Au MEA chip was sonicated in acetone for 5 min to remove the photoresist protection layer, followed by rinsing with methanol and subsequently with isopropanol for 30 seconds. The Au MEA was then rinsed with deionized water and blow-dried with N2. Prior to use, the Au MEA chip was mounted in a home-made electrochemical cell described in our previous report and electrochemically cleaned by cycling voltammetry (CV) between −0.60 to 0.70 V in 0.10 M phosphate buffer (0.038 M NaH2PO4 and 0.061 M Na2HPO4, pH=7.4) vs. a mercury/mercurous sulfate reference electrode (MSE) filled with a saturated K2SO4 solution (CH Instruments, Austin, TX). The cleaned Au MEA was then rinsed with deionized water and blow-dried with N2. All electrochemical protease detection measurements in this study used an in-house synthesized hexapeptide H-15 attached with a ferrocene (Fc) redox tag, as the substrate (referred to as “peptide-Fc” in this study). […] To functionalize the MEA with this peptide-Fc substrate, the chip was first incubated in 1.0 mM 6-mercapto-1-hexanol mixed with 0.2 mM 6-mercapto-1-hexanoic acid in deionized water for 40 min to form a close-packed self-assembled monolayer (SAM) due to thiol adsorption on Au surface. The formed alkanethiol layer serves as an insulator to reduce the background current while providing a ratio of about 1:5 between —COOH and —OH groups at the top surface. The electrode was then incubated in 2.0 mM peptide-Fc substrate mixed with 0.2 g/L 1-ethyl-3-(3-dimethylaminopropyl)carbodiimide (EDC) and 0.2 g/L N-hydroxysulfosuccinimide (Sulfo-NHS) as coupling agents for 2 hours at room temperature to form amide bonds between the amine group in the peptide-Fc substrate and the carboxylic acid group on the SAM surface. […] The functionalized chip was rinsed with deionized water for 30 seconds to remove the physically adsorbed molecules.
Electrochemical Experiments. Electrochemical experiments were performed on a specially designed electrochemical cell mounted on a large copper block for temperature control by circulating thermostatic silicone liquid through the internal channels. The thermal circulator (Julabo, Allentown, PA) was set to achieve a temperature of 38.6° C. Two buffer solutions, 0.5×PB (pH=7.4) and 25 mM MES (pH=5.0), were used. In some experiments, the rhCB was activated by incubation in 25 mM MES buffer (pH=5.0) containing 5 mM DTT for 15 min. […] Fc signal on the Au surface was detected by alternating current voltammetry (ACV) with an AC frequency of 300 Hz and a voltage amplitude of 100 mV on a DC ramp from −0.45 V to 0.20 V vs. MSE. Electrochemical measurements were performed using an IVIUM n-Stat potentiostat (Eindhoven, The Netherlands), which allows measurement of up to ten independent working electrodes simultaneously versus a common MSE reference electrode and a common Pt coil counter electrode.
Principle of the Electrochemical Detection of Protease Activity. The sensing principles are described in Example 1. As shown in the cyclic voltammogram (CV) in FIG. 27, the Fc tag in the peptide-Fc functionalized at the Au microelectrode surface can be oxidized into ferrocenium (Fc^+), giving a pair of well-defined redox waves centered at −0.15 V (vs. MSE). These peaks disappeared after the peptide-Fc substrate was cleaved by proteolysis. The surface concentration of peptide-Fc substrate ΓSs can be derived from the integrated area under the oxidation peak to give ΓSs=3.1 pmol/cm^2, corresponding to an average nearest-neighbor distance of 7.9 nm between the peptide-Fc. This low density allows easy access by the protease. As further shown in FIG. 28, the weak faradaic signal can be amplified using ACV, i.e., applying an AC voltage on top of a DC potential ramp from −0.45 V to 0.20 V (vs. MSE). […]

inverse decay constant (1/τ) (1.0 nM activated cathepsin B, 0.2×PBS pH=7.4): (7.65±0.42)×10^−4 s^−1 | average measured activity (1/τ) (1.0 nM activated cathepsin B, 0.5×PB pH=7.4, 8 channels): (42.1±3.7)×10^−4 s^−1 | inverse decay constant (1/τ) (1.0 nM activated cathepsin B, 0.5×PBS pH=7.4): (11.44±0.64)×10^−4 s^−1 | inverse decay constant (1/τ) (1.0 nM activated cathepsin B, 1×PBS pH=7.4): (4.2±1.1)×10^−4 s^−1 | activity in 0.5×PB relative to 25 mM MES buffer (1.0 nM activated cathepsin B, same Au MEA chip): ~40 times | LOD of activity (0.5×PB, 3σblank+(1/τ)blank): 0.000849 s⁻¹ | LOD of cathepsin B concentration (0.5×PB, 3σblank/m): 57.1 ± 0.41 pM | saturated 1/τ value (rhCB concentration above 1.0 nM, 0.5×PB): about 45×10^−4 s^−1
Substance: H2N-(CH2)4-CO-Pro-Leu-Ala-Phe-Val-Ala-NH-CH2-Fc ([Ava]PLAFVA-aminomethylferrocene) [Peptide H-15]
